B1: Protein L B3 domain variant EPS4(E28G/K43E) (designed binder)
chain: MPKEEVTIKANLIYADGKTQTAEFKGTFGEATAEAYRYADLLAEENGKYTVDVADKGYTLNIKFAGKEKTPEE
notes: not shown: 6xHis tag
B2: Protein L B3 domain variant BEP4(E28G/N60E) (designed binder)
chain: B1 chain with E44K, N61E
notes: not shown: 6xHis tag
B3: Protein L B3 domain variant EPS2(E28P) (designed binder)
chain: B1 chain with G29P, E44K
notes: not shown: 6xHis tag
B4: Protein L B3 domain variant EPS1(E28L) (designed binder)
chain: B1 chain with G29L, E44K
notes: not shown: 6xHis tag
B5: Protein L B3 domain variant BEP3(E28G/D51V) (designed binder)
chain: B1 chain with E44K, D52V
notes: not shown: 6xHis tag
B6: Protein L B3 domain variant EPS6(E28G/N60F) (designed binder)
chain: B1 chain with E44K, N61F
notes: not shown: 6xHis tag
B7: Protein L B3 domain variant EPS3(E28W) (designed binder)
chain: B1 chain with G29W, E44K
notes: not shown: 6xHis tag
B8: Protein L B3 domain variant EPS5(E28G/D51T) (designed binder)
chain: B1 chain with E44K, D52T
notes: not shown: 6xHis tag
B9: Protein L B3 domain variant BEP1(E28G/Y13F) (designed binder)
chain: B1 chain with Y14F, E44K
notes: not shown: 6xHis tag
B10: Protein L B3 domain variant BEP2(E28G/K43P) (designed binder)
chain: B1 chain with E44P
notes: not shown: 6xHis tag
B11: Protein L B3 domain variant EP2(E28G) (designed binder)
chain: B1 chain with E44K
notes: not shown: 6xHis tag
B12: Protein L B3 domain variant mBF4 (Y13F/E28G/K43P) (designed binder)
chain: B1 chain with Y14F, E44P
notes: also called mBF monomer; not shown: 6xHis tag
B13: Wild-type Protein L B3 domain (other)
chain: B1 chain with G29E, E44K
notes: also called wB3; wild-type B3 domain; not shown: 6xHis tag
B14: Protein L B3 domain variant EP1(E28A) (designed binder)
chain: B1 chain with G29A, E44K
notes: not shown: 6xHis tag

Substitutions are numbered along the chain they refer to. Names and notes keep the numbering of the source.

One assay deals with T1, IgG(f) protein (Herceptin scFv).
T1 construct: Polypeptide of the human IgG1-based scFv region (GenBank AWW43726); Expressed from pET29a(+) (NdeI/XhoI) in E. coli and purified on Ni-NTA resin; also called recombinant immunoglobulin G fragment
T1 sequence (scFv, as listed by the source): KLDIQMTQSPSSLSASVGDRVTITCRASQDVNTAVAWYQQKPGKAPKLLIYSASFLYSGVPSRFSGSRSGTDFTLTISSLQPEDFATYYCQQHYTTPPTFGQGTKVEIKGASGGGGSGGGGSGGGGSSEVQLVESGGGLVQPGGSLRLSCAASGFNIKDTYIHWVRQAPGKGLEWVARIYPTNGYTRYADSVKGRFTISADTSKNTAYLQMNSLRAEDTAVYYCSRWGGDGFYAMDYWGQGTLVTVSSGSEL
The assay can be described thus: binder coupled to NHS-Sepharose in 96-well filter plate; bound IgG(f) eluted and read at OD280 after 0.3 M NaOH.
On to B1, for which the binding result was “binds”. On the same count and under the same terms, the same measure for B2: “binds”; for B3: “binds”. As for B4, the binding result is given as “binds”.

Consider B5, for which the binding result is on record as “binds”. For B6, the binding result is recorded as “binds”.

Turning to B7, the binding result is “binds”. Still for that read-out and setting: the result for B8 reads “binds”. Same read-out and setting: the same measure for B9: “binds”; for B10: “binds”.

Another assay has the same target. The assay can be described thus: binder coupled to NHS-Sepharose in 96-well filter plate; bound IgG(f) eluted and read at OD280 after 0.3 M NaOH; reference set to 100%.
On to B11, for which the binding result is listed as “binds”.

For the next assay the target is unchanged. Put plainly: binder coupled to NHS-Sepharose; bound IgG(f) eluted and read at OD280; relative to 0 h (100%), after 5 h in 0.3 M NaOH; reference wB3. The method, then:
The library prepared in Example 5 was purified by the same manner as in Examples <1-3>, and the absorbance over time was measured by the same method as in Example 3 to compare the alkali tolerance. The absorbance over time obtained is shown in FIG. 5 as a relative value to the absorbance (100%) at the beginning (0 h).
As for B12, the “fold increase in alkali tolerance (residual scFv binding activity after 5 hours in 0.3 M NaOH) compared to wB3” value was about 2.7 fold.

Another assay has the same target. Put plainly: binder coupled to NHS-Sepharose in 96-well filter plate; bound IgG(f) eluted at pH 2.5 and read at OD280, before and after 0.3 M NaOH.
As for B13, the binding result is “binds”.

With B14, the binding result is recorded as “binds”.

The record behind these values is patent publication US20230356187A1 (AMICOGEN, published 2023).
